According to the domain aggregation screens of Martell et al. (2025):

Assay: soluble fraction after stress (log2 fold change); higher = more stays soluble; pooled small domains, quantitative proteomics
Settings: stress: 75 degC
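Further: 20 min heating vs room temperature control held 20 min.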

| Sequence | soluble fraction (log2) |
| --- | --- |
| HMASVLTGMLGRVTGELAPKGIVMVGNETWTAVSEDDSVIRIGEPVEVRSVEGLILTVFRRID | -2.66 |
| HMATAADLLQSATGVPRSDALLLLAKLLGVAKERLIAHPETVVSEKTQATFSDWIERVRGGFPTTYLLG | -0.393 |
| HMATAEETTPLWARNRLSHAIFGPGSVTGEDERSFEVAFDNGDTLNFSKKSAHLYFTAMSSR | -0.169 |
| HMATARPPPPPESRVEVLFDGRWYAGTVVGGALDEHRATVFFDADRLSQVINFAETGIRVLGT | -0.123 |
| HMATEYIIPTVTNKKLEEAIGIAQLRGFEISVDEYKPSDIDEGTVLEQSPAAGTNAKQGDTISVTVSSG | 0.476 |
| HMATFTPYLVRITASVLNIRKGPGTTYAVTGQIKDRGVYTIVEQKGNWGRLKSGAGWISLSYTKK | -3.25 |
| HMATPAFEMYKVRRGDTPAGLAKEWGFPDMASFYRINPDARSDWKRGLQLVKPMNEMAVLQATA | -0.302 |
| HMATPKYMELVRWINEQIESKNLVPGQKMYSENTLKEMFGVSRQTVRHAIGVLENEGVIRRIQGSGTYIN | -1.51 |
| HMATPSTGQVSVVRLNLRVSPSISSPVVTRLTQGDTVKILAASDDGRWYKVATADGRTGWLYTIYITAE | -1.34 |
| HMATQTGTVKWFNEGKGFGFIAPDDGSKDLFAHFSEIKTTGFKTLAEAQRVEFEVTEGRKGLQASNIK | 0.442 |
| HMATRLPFGFAKRFGVLVEGKDDQITVYHKDGLQTAVILEIQRYLARPFRFEAVTPEEFERRLGLAYQS | -2.44 |
| HMATSNDTQITGSLALRFDGSGDTFTVNVNGDDKLEINTEGTVIYKPLTTAPTYVSGGLFFSSSGDFYVG | 0.00147 |
| HMATTIDFTVGDDVQVMNGPLESFTGKVTELNEASQKVKVDVVMFGRVTNVELDFVQVKKIT | -1.04 |
| HMATTIEAPMPGKILDVKVNPGQAVSYGQVVLTMEAMKMETEIVAPADGTVASVLVKSGDMVETGAALVSL | -0.344 |
| HMATTMSADWRPSEDAVGILVNAEINARFIEDAIPEFVLYWRERGAVHGAWNSKFIEHIRRQWAKFSAS | -2.84 |
| HMATTPEETILEYINKNNRISKQEIADLMGITRDGVSYHIKKLRKNGLLEWIGSPSNGHWEIIE | 0.38 |
| HMATVHPIRIQGGMTTQQGGKTVWLWVSDEGRLMTEDEIAGESGGTVSSRMVRGVRVLTGTGVIYG | -1.96 |
| HMATVIDVATTLGRPITDPDEQRQVLNWIGKTERIISARLGDLAALDRQILADVISEVVARRARN | -0.495 |
| HMATVNIGNLTFTHKGDYASGTTYAKNDVVYYSTNGNAYIAKQATQGNAPTSTAHWDVFAAGSGG | 0.245 |
| HMAVDAASSTIGKNVEVSVANEKGDYENFNGKVKSASIKDGVVYLELELKDTGEIKEVPYSSLTKIT | 0.0437 |
| HMAVDPSVLTRRERQALAWIARGLSNKEVARGLNLAESTVKVHVQSILRKLNLTSRVQAAVYAIEHGIDK | -3.08 |
| HMAVFRVGDKVKSMEGMIGEVRGINGRLIQVATPYGLRDYYPHQITKVENPLAAAPAPLNEEA | 0.767 |
| HMAVGVFQKEDGYWGYRFSIIVDGKTIARRKFTDENGSKLRTKSEAVKARAAAMVAARMERVS | -3.46 |
| HMAVIILDEPTLGLDPAVRISLWQAIQSARDSTMSAFLITTHYIKEVADYLSAVKILDHGREVASGNPSAL | -0.313 |
| HMAVKLELYRVFKEVAETGNISAAAKNLYISQSAVSQSIKQLETALQARLFARSPRGVTLTGEGQMLYQYV | -1.5 |
| HMAVKNAQIDVQQFFYSKSGEVDFGRKIKAIQSHFTPERLQSFTAAVPPSQWVSQLQVMWDSL | -2.12 |

| Sequence | soluble fraction (log2) |
| --- | --- |
| HMAVLGIQPVFHRSTGQTVYKSSVNTAKGRVYLGLFPTLTEALEIKLKYMQEHGHTKGITNLTNKLKEL | -1.05 |
| HMAVPFTIDVSQNGRYFIEEDNQVVEVSIGFLEDRFLRIIKSNPDIEVIIRGDAKASYESIAELLAVLQ | -0.904 |
| HMAVQPMDQVKAWLAEDNPADIKLLVPVLQKLDLLDYEQVRGEVADRAGVRKSLLDEAVKGN | 0.0888 |
| HMAVRTELLALPAGWHGDASRLSTALAALQGVREAVVIASEGVAYLKVHGHDWDRDGARELLQN | -1.12 |
| HMAVSGRGSIIGGVATVLDDFADSGKVWLEGEAWQARSSVPLKQDQEVVVRAMDGLVLVVEPVA | -0.442 |
| HMAVSNWQKLVSSIQTQLKILALYHGPEDGIYGPNTRSAIMLYEENIGLPVTGEPSRELLAHMLDQTD | -1.64 |
| HMAVTNLTAKQISDTRWRVTWDSTLASPTYYVYRDGLLMMQTRQELYEFDAARGEQVQIDVLDDMAAAPAE | -0.853 |
| HMAWAVRAGEGVLIRAGQPGFSATTRGTALSNGAIGEGVRVRNLGSGKEIQAWVVDKGEVETR | 0.00511 |
| HMAWIAVATKEDYSEYEWKELSPTTDWSTQTFDLGDLAGKTIYAVKMFFDHDTDVKDYKFNLGQLSITSN | -0.189 |
| HMAYRLDVRNQTKGTYLVIQKKYWDKEKKQSRTKHHMSLGYVHDLQKLYSDPITHYKEVINQMNAEEKG | -2.09 |
| HMAYSEEDRRRVREELLTTALKLMSTQGIQHTTVEQVYRSVGISRSFFYAFFPTKEDLIVEAL | 0.0495 |
| HMDAAANTLRILKALSESPMSADRLAELLMEEGSGRNPRTIRRYIRALREAGFGVEHREGRYVL | -0.387 |
| HMDAAEVEATARAMLRRSALNLLAQREQTAFELKQKLSRRFPEQAALLDEVIERLQEQGLQDDTR | -0.0318 |
| HMDAEEISILLEKAVLQLPEKQKMIFQLKYFEDLSYKDIQIITGGSIGGLKANYHHAVTKIEKLLS | 0.123 |
| HMDAEETLGARLRRLRQARGLSLAGLAQAAGLSKPSIWAWENGTTAPRRTSLLALARALDVPEQQLTGV | -0.715 |
| HMDAEKHIVTPEAGLRLDRALTDALPNLSRSRVKQLINEGLVTTENKTITAPSYRVKYGDSFEISIPPPT | -0.16 |
| HMDAIIVPSVLKMKPFEAEEKLSALGLRMKINDTVYIDNMKPGVIVEQSPTAEEDVKTDRVIYVIVNA | -0.327 |
| HMDAKQLQSLKNNNEQLAGFIVRLTNFYEGLSPDIDAELSKLRSHLSGKVDYTLATVSINKINQLFMLEP | -2.97 |
| HMDALIWYVSRGQQKFGPFNYFGVLKALQDKSVFEFDYVWKEGTENWVRLAEHELFSQEKVRELLA | -0.554 |
| HMDAMLGEALRLIRVYHDLKQKQAAERLEVSTSYLSEIERGLKTPTLDIIQRYATVFDMPVSSIMFFSENL | -3.1 |
| HMDAMLSEQLREKRGELLIEVDAIAGNALRWATLSAEQQDAWAVYRQALLDVPQQAGFPNDVVWPINPN | -0.42 |
| HMDAPKPDIGMSTDQIRSSLGQPGSQTRLETGGGRIYELWIYLYPDGKELQIYFDNAKVVKMEALS | -1.19 |
| HMDAPLIIAETRVDVPDATVSDAVMMLDLRNTNALLFKNSGSGVLNMVYRRGDGTIGWGEPQ | -0.011 |
| HMDASKVKIEDLGLSTRTENALVAASIRTAGGLARKSEMDLLSTDGLGEKGITEIKKALSDLGLELK | 0.4 |
| HMDAVSTMIENLRVKTGKSLADWVGLAKGSGADKHGAMVGWLKSEHGLTHGYANLIAHETFRSAA | -0.129 |
| HMDAVTPVLSRIRDARFKRMVLPGDEIEISVTLIDTIGKFFNLSGQIRNKDKISLTVNFALALV | 0.195 |

| Sequence | soluble fraction (log2) |
| --- | --- |
| HMDDADPYEILGVERDAEDAEIKRAYHDLIRENHPDRLMAEGLPQEMIDVANEKVAFINDAYDRIEKLRGM | -0.193 |
| HMDDENKIEVMINEEKVQLTGKDKYVFVDIFNYIDMDLTRIHGNLVLKLNGENASHNSLLKSGDKIEARWE | -0.746 |
| HMDDERDRLVQQAMEGLSPALREILLLAYFQRMPYNQIAESLRIPLGTVKSRLHAAVAAFAKRWQELNRS | -0.77 |
| HMDDFNLSPREKDVLGHLVKGNSYKMIADELQIGYDTVHSHIKKIYKKLHVNSMSEAVAKALKNKL | 0.332 |
| HMDDGARQLVDQLNRLIANPAVSARIIHGYLILEGRVESEWEKTRTLLLAQVAGLPVIDLITVS | -2.35 |
| HMDDGLTRLTPRENEVLELMAQGRSNTAIAERLVLSYGAVEKNVSSIFTKLDLPLDAGDHRRVLAVLRRLN | -0.668 |
| HMDDGNHTEYIVLEKAKFYDEAGEYEEGRDLVLSFDKYQDNWKLVYTLGVFNKKLNNLEEARKYYKQALE | -0.0263 |
| HMDDHKQHLIDFYHSRKRMPTYTEMMALFGYKSKNAVARLVEKMIDAGIVTKDKLGKLLPTTLFDSVPL | -0.00288 |
| HMDDHLRLSDNERISAMSALATHFTEGRLDTSEFDERTLAASQAKSRGDLRPLFDDLPGQLPAALSP | 0.0298 |
| HMDDKLKKLEEVFEMQEGTLTPDMRLDELEEWDSMTRLSLIVMMEDDYGKKVKRSEVMNYTTVQDIVDSME | -0.0532 |
| HMDDLSPEENKVIGAQVREELARRRLSRQHLADKAKISLSTLEKALTGTRPFTLASVVRIEEALQLQLRK | -1.35 |
| HMDDPEISQEQRQQLFRTAKEHFGASGNDVLKEILADHGRDSTVKMPVSVFAEIMGDLLKRALD | 0.612 |
| HMDDPQAELLARAVRRVALAAAERTRRNEYGGVYLGLFRQFGISSYRRTPPARLHEALEWLERWRGDLM | -0.134 |
| HMDDTVILPIQINGKRRAEISVPKAMPASEVEKLALANEDVLRFLAGQPIKKLIVVPGRIINVV | 0.0584 |
| HMDDVGERIRKIREEKNLSLDEISKMTGFDVEFLAKIENKERQPQLGTVIKLSKALDSAFGRL | 0.162 |
| HMDDVGYLRKRLQQALAQLSDDLRNTYTLFQIGKQSIKQIAAETGASESLVKVRIHRAKQKLQELLADLQ | -1.47 |
| HMDEDLQEALRKLNPIQANERKLLLKMLEQHRWNVSSVAKAFDVSRNTLYRRLHKLHIPLSNPSE | -1.33 |
| HMDEEAIELTQEVMKLPPKQREVILLYYYHGLTGKEIAKALGISGAAVSKRLKQAKNQLHFALK | -0.282 |
| HMDEEVLVVQEGGERLDVFVAANAEGITRSFVQNLIKKGDVTVDGAPRKANYRLRSGQVVRFSLPEP | -0.204 |
| HMDEFEEGVITYFNSEKGFGFIRESKTKQSVFVHSKQLSSPVQLNDKVKFIVNKGLKGLEATEVSVI | -0.818 |
| HMDEFQLTPREQEILGLLVKGYTYKRIASELNLSYATVNRHVSNVYVKLRVHSVNEAVALAVRKGL | -1.39 |
| HMDEKLAHKLVSDFRQAAASLERFPFRNPVLRSEVFTVEKYRKLVFDKYHILLYQVKDQVVYVEYVIDGRQ | -0.94 |
| HMDEKVTIPSVSGLLLSEAKTKLVDAGLTVETVYDDESKEAKDTVLSQSPLQYGKVDKGTVVTLTVSSGKG | 0.332 |
| HMDELPKDILRSFGLPDKPWAMELLRNLRRDGFALDGETARAYAEMAAMKPPRTDARQWMTAADVAYRRG | -0.343 |
| HMDEMPVEFVKISIKAGHPWENRKIKDLASLPDLLLVLILRGEERIIPNGNTVVLAGDKIVLSALSPE | -2.74 |
